Test: Stability study in D2O (formaldehyde release monitored by NMR; MALDI-TOF of hydrolyzed product)
Experimental: Compound III, V, and XIV (6 mg) were separately dissolved in 0.75 ml of D2O and stored at 37° C. The methylene peak disappearance as well as methyl peak shift were monitored by 300 MHz NMR over time. The half-life of the formaldehyde release reaction was monitored using first order kinetics.

With “2-mPEGyloxy5k-4,6-di-(N-methyl-N-hydroxymethylamino)-1,3,5-triazine [Compound III]” the “half-life (t1/2) of the formaldehyde release reaction” value was 81 h.
In the case of “2-mPEGyloxy350-4,6-di-(N-methyl-N-hydroxymethylamino)-1,3,5-triazine [V]”, the “half-life (t1/2) of the formaldehyde release reaction” value is reported as 81 h and the “dimerization (MALDI-TOF spectrum of hydrolyzed compound)” value (after hydrolysis in D2O at 37° C.) is reported as “no detectable dimerization”.

— patent US20020182172A1, “Water-soluble polymer conjugates of triazine derivatives” (Shearwater Corporation, priority 2000, published 2002)
